Results on 1 molecule are retold here after article PMC4281115, “pH-Dependent Conformational Changes in the HCV NS3 Protein Modulate Its ATPase and Helicase Activities”.

The target in data set [1] is T1, NS3hel (NS3 helicase domain) (Hepatitis C virus genotype 1b …, UniProt Q9WMX2 1193-1657). The data set can be described thus: fluorescence anisotropy; pH 6.4, 2 mM MgCl2; 25 mM MOPS-NaOH pH 6.4 or 7.2, 2 mM MgCl2, 25 C; 25 nM 5-FAM-dT20 with 0-10 uM NS3hel or 0-5 uM NS3FL, 10 min (anisotropy); 1 uM protein with 0-1 uM ssDNA (Trp). The following applies: protein: recombinant; tags: N-terminal 6xHis-TEV, cleaved; label: 5'-carboxyfluorescein (5-FAM); single strand. For orientation: In fluorescence polarisation assays a small probe gives low polarisation when free and higher when bound to something large.

Data set [2] deals with T2, NS3FL (full-length NS3) (Hepatitis C virus genotype 1b …, UniProt Q9WMX2 1027-1657). The description is as above. The note with it: protein: recombinant; tags: C-terminal 6xHis; label: 5'-carboxyfluorescein (5-FAM); single strand.
Data set [3] deals with T1, NS3hel (NS3 helicase domain). The data set is described as follows: fluorescence anisotropy; pH 7.2, 2 mM MgCl2; 25 mM MOPS-NaOH pH 6.4 or 7.2, 2 mM MgCl2, 25 C; 25 nM 5-FAM-dT20 with 0-10 uM NS3hel or 0-5 uM NS3FL, 10 min (anisotropy); 1 uM protein with 0-1 uM ssDNA (Trp). The following applies: protein: recombinant; tags: N-terminal 6xHis-TEV, cleaved; label: 5'-carboxyfluorescein (5-FAM); single strand.

Data set [4] has as its target T2, NS3FL (full-length NS3). The data set is described as above. The following applies: protein: recombinant; tags: C-terminal 6xHis; label: 5'-carboxyfluorescein (5-FAM); single strand.

T2 sequence (Q9WMX2 1027-1657): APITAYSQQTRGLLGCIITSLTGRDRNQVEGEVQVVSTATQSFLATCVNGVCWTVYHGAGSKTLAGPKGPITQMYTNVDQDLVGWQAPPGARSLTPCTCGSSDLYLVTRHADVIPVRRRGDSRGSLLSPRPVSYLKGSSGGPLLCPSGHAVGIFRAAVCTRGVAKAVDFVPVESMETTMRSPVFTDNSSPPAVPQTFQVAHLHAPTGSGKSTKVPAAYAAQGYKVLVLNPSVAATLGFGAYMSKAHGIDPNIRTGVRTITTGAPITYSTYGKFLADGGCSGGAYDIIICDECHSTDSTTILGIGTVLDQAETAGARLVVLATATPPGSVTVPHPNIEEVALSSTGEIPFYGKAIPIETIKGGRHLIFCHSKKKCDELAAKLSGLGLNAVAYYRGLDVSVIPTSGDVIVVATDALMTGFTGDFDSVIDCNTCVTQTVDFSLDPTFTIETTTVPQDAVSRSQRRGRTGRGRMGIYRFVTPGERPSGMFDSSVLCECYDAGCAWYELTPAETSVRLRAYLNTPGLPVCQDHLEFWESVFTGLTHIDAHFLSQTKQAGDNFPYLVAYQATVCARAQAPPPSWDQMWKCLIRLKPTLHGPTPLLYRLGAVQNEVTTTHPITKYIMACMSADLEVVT
T1 sequence (Q9WMX2 1193-1657): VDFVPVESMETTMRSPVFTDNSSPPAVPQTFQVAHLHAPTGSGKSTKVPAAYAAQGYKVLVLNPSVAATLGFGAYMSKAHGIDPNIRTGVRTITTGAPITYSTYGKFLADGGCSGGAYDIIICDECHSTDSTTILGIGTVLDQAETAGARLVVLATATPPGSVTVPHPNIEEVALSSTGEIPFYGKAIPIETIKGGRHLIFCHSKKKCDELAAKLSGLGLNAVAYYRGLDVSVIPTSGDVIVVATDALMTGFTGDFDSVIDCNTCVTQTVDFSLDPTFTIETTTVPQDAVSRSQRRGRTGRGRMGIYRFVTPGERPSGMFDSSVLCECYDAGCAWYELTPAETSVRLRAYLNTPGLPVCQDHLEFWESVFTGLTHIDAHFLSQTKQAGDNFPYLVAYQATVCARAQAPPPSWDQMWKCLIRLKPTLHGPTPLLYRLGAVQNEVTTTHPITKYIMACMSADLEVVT

The Kd is a measure of binding affinity in units of concentration. Regarding TTTTTTTTTTTTTTTTTTTT (ssDNA) [5-FAM oligo(dT)20], the Kd in data set [1] is roughly 42 nM; with NS3FL (full-length NS3) [2], roughly 28 nM; in data set [3] it was roughly 254 nM; with NS3FL (full-length NS3) [4] it was roughly 49 nM.
